Laboratory results taken from patent publication US7341859B2, “ADH from Rhodococcus erythropolis” (Degussa AG, priority 2002, dated 2008).
Blank lines part the entries; values can stand above or below the molecule they belong to.

What was measured:
[1] = system: aldehyde reductase from Corynebacterium sp.; conditions: phenylacetaldehyde = 100%; cited from earlier work
[2] = system: aldehyde reductase from Corynebacterium sp.; assay: Activity of substrates with aldehyde reductase from Corynebacterium sp. (Itoh et al.); assay type: biochemical, Corynebacterium sp. ST-10; conditions: Corynebacterium enzyme
Excerpt: When comparing the gene sequence for ADH from R. erythropolis with sequences in the databases, it was shown that RE-ADH has a high degree of homology with an aldehyde reductase from Coyrnebacterium sp. In the publication on aldehyde reductase, a number of biochemical properties of this enzyme are described (Itoh, N., R. Morihama, J. Wang, K. Okada and N. Mizuguchi (1997), Purification and characterisation of phenylacetaldehyde reductase from a styrene-assimilating Corynebacterium strain, ST-10, Appl. Environ. Microbiol. 63: 3783-378). Some of the (aldehyde) substrates described in that publication were therefore also converted using RE-ADH and compared using the relative activities of the reductase. […] Further comparisons of the two enzymes using the published data material are not meaningful because the enzyme from Corynebacterium was tested exclusively with phenylacetaldehyde as substrate, but RE-ADH has hitherto been characterised using p-Cl-acetophenone.
A comparison of RE-ADH with the aldehyde reductase from Corynebacterium sp. with regard to the activity for acetophenone reduction and a few aldehydes. Data on the enzyme from Corynebacterium were taken from the publication by Itoh et al. (see above), data on RE-ADH are our own measurements (homogeneous=very pure homogeneous enzyme). […]

[3] = system: alcohol dehydrogenase from R. erythropolis (RE-ADH, new ADH expr. in E. coli); assay: Relative/specific activity of substrates with the new ADH from R. erythropolis (photometric NADH test); assay type: biochemical, Rhodococcus erythropolis
Method: In this case, as is normal, the measured activity for one compound is set at 100% and the activity/activities of the other compound(s) is determined in relation thereto. From the relative activities when compared with other substrates, it can then be recognised whether such another substrate is accepted to a greater or lesser extent.
A first purification can be achieved by anion exchange chromatography (MonoQ-Material, Pharmacia) (mobile buffer: 50 mM TEA buffer, pH 7.0; elution with a NaCl gradient of 0-1 M).
For the activity test, the cells were harvested (15 min centrifuging at 14000 rpm, 4° C.) and degraded after resuspension with 100 mM KPi buffer, pH 6.0 (1.5 ml of buffer per 1 g of cells). For the purposes of degradation, the suspension was treated with ultrasound (2×30 sec. power 100%, pulse 50), then the cell broth was centrifuged. The supernatant liquid is the soluble crude extract, the sediment is the insoluble fraction.
For a comparison using relative activities, the activity of the two enzymes was given with respect to phenylacetaldehyde=100%.
In this case, the relative activity is given with respect to the activity measured for acetophenone.

[4] = Thermal stability of the ADH (activity after incubation); assay type: physicochemical
Method: The advantageous aspects and differences mentioned above with regard to improvement in the stability, as compared with previously known alcohol dehydrogenases from R. erythropolis are summarised in Table 5 and in FIG. 4. For better comparison, the relevant enzyme activity measured at 45° C. was set at 100%.
Here, for the very pure new alcohol hydrogenase, high thermal stabilities were produced over a wide temperature range extending up to 65° C. The stability values in this case are […]

[5] = Specific enzyme activity, standard test with p-Cl-acetophenone and NADH; assay type: biochemical
Method: For elution, a falling ammonium sulfate gradient (1-0 M) was used; the desired enzyme then eluted at almost 0 M ammonium sulfate. […] The desired protein eluted on application of a falling ammonium sulfate gradient (1-0 M) at about 0.1 M ammonium sulfate. […] The supernatant liquid is the soluble crude extract, the sediment is the insoluble fraction. […] For expression, E. coli BL21 (DE3) was used as host. Recombinant cells were multiplied in the medium LBcam at 37° C. At an OD600 of 0.5, expression was induced with 25 μM IPTG, then the cells were multiplied for 12 h at 30° C. The cells were harvested after centrifuging for 15 min at 5000 rpm, the sediment was resuspended in 100 mM Kpi buffer (1.5 ml per 1 g of cells) and broken down using ultrasound.

[6] = pH optimum for the activity and stability of RE-ADH; assay type: biochemical; conditions: 4° C. and room temperature, 1 and 2 days, pH range 7.5-8.5, tris-HCl buffer 0.1 M
Excerpt: The pH optimum for RE-ADH is at pH 6.0 for the reduction reaction (measured using p-Cl-acetophenone).

[7] = Activity of immobilised RE-ADH (Eupergit, Ni-NTA) with p-Cl-acetophenone, GC; assay type: biochemical; conditions: for activity of the immobilised enzyme: 30° C.
Method: Eupergit C® and Eupergit C 250L® were used in parallel batches, each being loaded with partially purified RE-ADH (literature reference relating to Eupergit immobilisation: E. Katchalski-Katzir, D. M. Kraemer, J. Mol. Catal. B: Enzym. 2000, 10, 157). The following was used for the test: • 1.5 mM p-Cl-acetophenone (dissolved in 0.1 M Na formate buffer, 0.05 M KPi buffer, pH 6.0) • 0.5 mM NAD • 30 mg immobilisate • 1 U/ml formate dehydrogenase (FDH)
These test materials were incubated at 30° C., a sample (100 μl) was taken from each mix after 0, 5, 10 and 15 min, this was extracted with 100 μl of chloroform and the chloroform phase was analysed for any phenylethanol formed using gas chromatography. The activity of the immobilised enzyme can be calculated from the kinetics of phenylethanol formation and values of 11.8 U/g support for Eupergit C® and 8 U/g of support for Eupergit C 250L® were obtained. With respect to the amount of enzyme used, this corresponded to coupling yields of 1% (Eupergit ®) and 0.8% (Eupergit C 250L®). • b) Immobilising on Ni-NTA
Recombinant E. coli JM105/pRE-ADH5 cells were broken down in an imidazole-containing buffer (50 mM NaH2PO4; 300 mM NaCl; 10 mM imidazole, pH 8.0) and a crude extract was prepared in the way described previously. For immobilisation, 1 ml of enzyme solution (13 U/ml RE-ADH, crude extract from the culture E. coli JM105pRE-ADH5; 8 mg/ml of protein) was added to 300 mg of Ni-NTA support material (Quiagen) and incubated for 10 min at 0° C. (ice bath). After centrifuging the suspension, 3 U/ml could still be detected as residual activity in the supernatant liquid as non-bonded enzyme. The immobilisate was reacted with p-Cl-acetophenone to detect the bonded activity.
For this purpose, the following were used per 1 ml of total volume:
3 mM p-Cl-acetophenone (substrate; dissolved in 100 mM Na formate, 50 mM Kpi buffer pH 6.0)
1 U formate dehydrogenase
The test batch was incubated in the same way as described above (immobilisation on Eupergit®), samples were taken and these were analysed using gas chromatography. […] Taking into account the fact that this test was performed with 30 mg of immobilisate and that 10 U RE-ADH had bonded to 300 mg of support material, 1 U was thus introduced in the test batch with the 30 mg. Since an activity of 0.21 U was reported, an immobilisation yield of 21% was obtained. The enantiomer purity (ee value) of the alcohol formed with the immobilisate was >99%.

Molecule: CCCCCCCC=O [Caprylic aldehyde]
relative activity [1]: 1220%
activity towards caprylic aldehyde as multiple of that with respect to acetophenone (so in the source) [2]: 12 times
activity towards caprylic aldehyde as multiple of that towards acetophenone (so in the source) ([3]; RE-ADH): about 5 times
relative activity ([3]; phenylacetaldehyde = 100%): 522%

activity of the immobilised enzyme ([7]; immobilised on Eupergit C 250L): 8 U/g of support
activity of the immobilised enzyme ([7]; immobilised on Eupergit C): 11.8 U/g support
B1: RE-ADH: alcohol dehydrogenase (ADH, RE-ADH) from Rhodococcus erythropolis, Seq. ID NO: 2, tetrameric; also with C-terminal His-Tag or immobilised (protein, listed as Rhodococcus erythropolis)
chain: MKAIQYTRIGAEPELTEIPKPEPGPGEVLLEVTAAGVCHSDDFIMSLPEEQYTYGLPLTLGHEGAGKVAAVGEGVEGLDIGTNVVVYGPWGCGNCWHCSQGLENYCSRAQELGINPPGLGAPGALAEFMIVDSPRHLVPIGDLDPVKTVPLTDAGLTPYHAIKRSLPKLRGGSYAVVIGTGGLGHVAIQLLRHLSAATVIALDVSADKLELATKVGAHEVVLSDKDAAENVRKITGSQGAALVLDFVGYQPTIDTAMAVAGVGSDVTIVGIGDGQAHAKVGFFQSPYEASVTVPYWGARNELIELIDLAHAGIFDIAVETFSLDNGAEAYRRLAAGTLSGRAVVVPGL
modifications: optional C-terminal His-tag or immobilisation
notes: ID NO: 2, tetrameric; also with C-terminal His-Tag or immobilised
enzyme activity after incubation ([4]; 10 min at 45° C.): (110 U/ml)
relative enzyme activity after incubation ([4]; 10 min at 45° C.): 95%
enzyme activity after incubation ([4]; 10 min at 50° C.): (110 U/ml)
relative enzyme activity after incubation ([4]; 10 min at 50° C.): 95%
enzyme activity after incubation ([4]; 10 min at 55° C.): (115 U/ml)
relative enzyme activity after incubation ([4]; 10 min at 55° C.): 99%
enzyme activity after incubation ([4]; 10 min at 60° C.): (112 U/ml)
relative enzyme activity after incubation ([4]; 10 min at 60° C.): 97%
enzyme activity after incubation ([4]; 10 min at 65° C.): (116 U/ml)
relative enzyme activity after incubation ([4]; 10 min at 65° C.): 100%
activity in the crude extract ([5]; crude extract from R. erythropolis): about 2.5 U/mg
enzyme activity ([5]; hexa-histidine group at the C-terminus, pRE-ADH5 in E. coli JM105): 7 U/mg
ADH activity in the crude extract ([5]; plasmid pKK223-3, E. coli JM 105, soluble fraction): 6 U/mg
ADH activity in the crude extract ([5]; plasmid pKK223-3, E. coli JM 105, soluble fraction, listed as ADH according to the invention): about 6 U/mg
ADH activity in the crude extract ([5]; vector pKA1, E. coli BL21 (DE3), cell-free crude extract): 70 U/mg
ADH activity in the crude extract ([5]; vector pKA1, E. coli BL21 (DE3), cell-free crude extract, listed as ADH): 70 U/mg
ADH activity in the crude extract ([5]; vector pKA1, E. coli BL21 (DE3), cell-free crude extract, listed as ADH according to the invention): about 70 U/mg
deactivation on storage [6]: no deactivation
enantiomer purity (ee value) of the alcohol formed with the immobilisate ([7]; His-Tag enzyme on Ni-NTA): > 99%
activity of the immobilisate ([7]; His-Tag enzyme on Ni-NTA, 30 mg immobilisate, 3 mM p-Cl-acetophenone): 0.21 U
